{"source": "paper PMC7157769", "test_in_all_cases": "ELISA; affinity-based ELISA; 5 ug/ml of each dockerin-containing enzyme immobilised on a MaxiSorp plate; CBM-Coh modules applied at 0.01 ng/ml to 100 ug/ml (Fig. S4: 1 or 10 ug/ml); detected with rabbit anti-CBD", "key": {"[1]": {"biological_target": "GH44A (GH44A-Doc), dockerin-containing glycoside hydrolase of C. saccharoperbutylacetonicum (Clostridium saccharoperbutylacetonicum N1-4 (HMT))"}, "[2]": {"biological_target": "GH48A (GH48A-Doc), dockerin-containing glycoside hydrolase of C. saccharoperbutylacetonicum (Clostridium saccharoperbutylacetonicum N1-4 (HMT))"}, "[3]": {"biological_target": "GH9B (GH9B-CBM3c-Doc), dockerin-containing glycoside hydrolase of C. saccharoperbutylacetonicum (Clostridium saccharoperbutylacetonicum N1-4 (HMT))"}, "[4]": {"biological_target": "GH5B (GH5B-Doc), dockerin-containing glycoside hydrolase of C. saccharoperbutylacetonicum (Clostridium saccharoperbutylacetonicum N1-4 (HMT))"}, "[5]": {"biological_target": "GH74A (GH74A-Doc), dockerin-containing glycoside hydrolase of C. saccharoperbutylacetonicum (Clostridium saccharoperbutylacetonicum N1-4 (HMT))"}}}
{"substance": "X2-Coh1 of the scaffoldin ScaA, fused to a CBM cassette (domain or fragment)", "values": [{"measurement": "pEC50", "setting": "[1]", "value": 4}, {"measurement": "pEC50", "setting": "[2]", "value": 3}, {"measurement": "pEC50", "setting": "[3]", "value": 0.7}, {"measurement": "pEC50", "setting": "[4]", "value": 2.5}]}
{"substance": "X2-Coh2 of the scaffoldin ScaA, fused to a CBM cassette (domain or fragment)", "values": [{"measurement": "pEC50", "setting": "[1]", "value": 4}, {"measurement": "pEC50", "setting": "[5]", "value": 4}, {"measurement": "pEC50", "setting": "[3]", "value": 2.4}]}
